# Results taken from patent publication EP4674869A1 (Immuneoncia Therapeutics, Inc., dated 2026).
# Assays:
# CD47 [1] = molecular target: T1, CD47 (UniProt Q08722 19-323, limits assumed); assay: binding to MDA-MB-231 cancer cells; method not stated
# T1 construct: whole, on cells; also called CD47 on cancer cells (MDA-MB-231, Raji)
# CD47 [2] = molecular target: T1, CD47; assay: binding to Raji cancer cells; method not stated
# T1 sequence (Q08722 19-323 limits assumed): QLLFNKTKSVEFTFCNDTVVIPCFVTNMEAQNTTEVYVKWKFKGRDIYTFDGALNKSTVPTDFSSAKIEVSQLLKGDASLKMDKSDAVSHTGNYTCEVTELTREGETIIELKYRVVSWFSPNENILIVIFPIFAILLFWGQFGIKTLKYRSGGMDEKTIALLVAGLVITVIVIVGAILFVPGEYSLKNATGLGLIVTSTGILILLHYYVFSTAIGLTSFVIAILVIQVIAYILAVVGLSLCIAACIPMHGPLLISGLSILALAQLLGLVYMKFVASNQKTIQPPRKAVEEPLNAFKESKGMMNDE
binder,measurement,setting,value
"IMC-002 (antibody, human IgG4 S228P, lambda, V domains shown, Fully human IgG4 kappa antibody with an S228P hinge mutation; also called anti-CD47 antibody; C47B10-H3-D4) VH: QVQLVQSGAEVKKPGASVKVSCKASGYTFTSYYMHWVRQAPGQGLEWMGIINPSGGSTSYAQKFQGRVTMTRDTSTSTVYMELSSLRSEDTAVYYCARSTLWVSEFDYWGQGTLVTVSS VL: QSALTQPASVSGSPGQSISISCTGTSSDVGGHNYVSWYQQHPGKAPKLMIYDVRNRPSGVSNRFSGSKSGSTASLTISGLQTEDEADYYCNSYTGSRTYVFGSGTKLTVLG",EC50,CD47 [1],5.73 µg/mL
same,EC50,CD47 [2],4.77 µg/mL
